From paper PMC3265130 (2011)

Biological target: T1, H3(1-15Y)K9me3 (Homo sapiens, H3K9me3)
T1 chain: ARTKQTARKSTGGKAY
Assay: ITC

B1: Su(Var)205 17-76 (protein)
chain: not shown
Kd: 300 nM
